Target: CD99 on RD-ES and SK-ES-1 Ewing sarcoma cells (UniProt P14209)
Experiment: not stated (given with the antibody's description, refers to FIG. 57)

αCD99 antibody (clone: 12E7) gave a Kd of 10 nM.
